Results on 1 molecule are retold here after article PMC5523840.

In this data set the target is T1, TFCP2 (LBP-1c/CP2/LSF) (UniProt Q12800 1-502).
T1 sequence: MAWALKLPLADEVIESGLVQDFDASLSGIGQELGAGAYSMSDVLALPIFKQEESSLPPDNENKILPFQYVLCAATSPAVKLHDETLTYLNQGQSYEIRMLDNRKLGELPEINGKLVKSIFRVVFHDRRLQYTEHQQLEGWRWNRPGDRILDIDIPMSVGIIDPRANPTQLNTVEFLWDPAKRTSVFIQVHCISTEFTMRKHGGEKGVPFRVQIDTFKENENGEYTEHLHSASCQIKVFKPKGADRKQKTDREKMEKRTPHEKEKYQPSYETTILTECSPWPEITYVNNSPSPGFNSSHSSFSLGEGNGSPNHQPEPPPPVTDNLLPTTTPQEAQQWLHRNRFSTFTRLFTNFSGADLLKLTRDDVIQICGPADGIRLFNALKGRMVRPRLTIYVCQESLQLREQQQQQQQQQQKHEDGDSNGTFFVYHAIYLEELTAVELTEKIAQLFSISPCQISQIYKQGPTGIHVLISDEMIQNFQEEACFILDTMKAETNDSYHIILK
Put plainly: EMSA. For orientation: Mobility shift assays separate free from complexed probe on a gel.

B1: rs2830077[A] (dsDNA)
DNA 1: GACACGCTGACTTCCAGGCAAAAGCCAGGCACAAGAGAAGC
DNA 2: GCTTCTCTTGTGCCTGGCTTTTGCCTGGAAGTCAGCGTGTC
Take B1: the binding signal was 1 fold band intensity (reference for the C allele, 46% greater).
